Residue numbers refer to the chain shown, from its start.

The text below walks through data of US20220073643A1.

The target of this test is Claudin18.2-His protein (human). Nature of the test: indirect ELISA on coated Claudin18.2-His.

B1: 406G3C4 (antibody, V domains shown)
VH: EIQLQQSGPELMKPGASVRISCKASGYSFISYYIYWVKQSHGKGLEWIGYIDPFNGNTNYNQKFKGKATLTVDRSSSTAYIHLNSLTSEDSAVYYCAIVNGYGRGAMDYWGQGTSVTVSS
VL: QIVLTQSPAIMSASPGEKVTMTCSASSSISYMHWYQQKSGTSPKRWIYDTSKLASGVPARFSGSGSGTSYSLTISSMEAEDAATYYCQQWSSNPLTFGDGTKLELK
For the molecule B1, the EC50 (usually the concentration giving half of the maximal effect) amounted to 0.00918 µg/mL.

B2: 392C2F10 (antibody, V domains shown)
VH: EVQLQQSGPELVKPGASMKISCKASGYSFTGYTMNWVKQSLGKNLEWIGLINPFNGGTTYNQKFKGKATLTVDKSSSTAYMELLSLTSDDSAVYYCTRGDYWGQGTTLTVSS
VL: DIVMTQSPSSLTVTAGEKVTMSCKSSQSLLNSGNQKNYLTWYQQKPGQPPKLLIYWASTRESGVPDRFAGSGSGTDFTLTISSVQAEDLAVYYCQSDYSYPTFGAGTKLELK
In the case of B2, the EC50 was 0.0153 µg/mL.

B3: 286C7F11 (antibody, V domains shown)
VH: QVQLKESGPGLVAPSQSLSITCTVSGFSLTDYGVSWIRQPPGKGLEWLGVIWNRGNTYYNSALKSRLSISKDNSKSQVFLRMNSLQTDDTAMYYCAKHDFLRFLDYWGQGTTLTVSS
VL: DVVMTQSPSSLTVTAGEKVTMSCKSSQSLLNSGNQKNYLTWYQQKPGQPPKILIYWASTRESGVPDRFTGSGSGTDFSLTITSVQAEDLAVYYCLNDYYYPLTFGAGTKLELK
Consider B3, for which the EC50 is 0.0155 µg/mL.

B4: 198F10B8 (antibody, V domains shown)
VH: QAYLQQSGAELVRSGASVRMSCKASGYTFSSYNMHWVKQTPGQGLEWIGYIYPGNGGTNYNQKFKDKATLTADTSSSTAFIQISSLTSEDSAVYFCLTGRGFAYWGQGTLVTVSA
VL: B3 VL with V2I, K18R, L30F, I52L, W56R, S78T, T82S, L95Q, Y99S, A106V
With B4, the EC50 is 0.0315 µg/mL.

B5: 292D9C7 (antibody, V domains shown)
VH: B3 VH with N53G, R54G, T57A, R81K, Q86R, H98N, D99G, F100L, F103Y, T111S
VL: B3 VL with V2T, I52L, T75R, S78T, T82S, A86V, V91I, L95Q, L110V
With B5, the 50% effective concentration (EC50) came to 0.0232 µg/mL.

B6: 391F1G2 (antibody, V domains shown)
VH: DVQLVESGGGLVQPGGSRKLSCAASGFTFSSFGMHWVRQAPEKGLEWVAYISSGSSPIYYADTVKGRFTISRDNPKNTLFLQMTSLRSEDTAMYFCARIYYGNSFAYWGQGTLVTVSA
VL: B3 VL with V2I, T20A, S28T, I52L, I54L, S78T, T82S, L95Q, D97A, A106S
Molecule B6 returned an EC50 of 0.00836 µg/mL.

B7: 196A12B10 (antibody, V domains shown)
VH: QIQWVQSGPELKKPRETVKISCKASGYTFTDYSMHWVKQAPGKGLKWMGWINSETGEATYADDFRGRFALSLETSATTAFLQINSLKNEDTGTYFCARFYYGNSFASWGQGTTLTVSS
VL: DIVMTQFPSSLTVTAGEKVTMTCKSSQSLLNGGNQKNYLTWYQQKPGLPPKLLIYWASTRESGVPDRFTGSGSGTEFTLTISSVQAEDLAVYYCQNNYYFPLTFGAGTKLELK
The molecule B7 showed an EC50 of 0.0192 µg/mL.

B8: 395B3C11 (antibody, V domains shown)
VH: B6 VH with S31G, V37I, A40T, S56R, K65Q, I99F, A106D, Y107H, A118S
VL: B7 VL with F7S, S10F, T22S, G32S, L48Q, E76D, V91L, N97A, Y99S
With B8, the EC50 is 0.00443 µg/mL.

B9: 391H11H3 (antibody, V domains shown)
VH: B6 VH with S31G, V37I, A40T, S56R, K65Q, I99F, A106D, Y107H, A118S
VL: B7 VL with F7S, S10F, T22S, G32S, L48Q, E76D, V91L, N97A, Y99S
As to B9, the EC50 was found to be 0.0162 µg/mL.

B10: 392A11C8 (antibody, V domains shown)
VH: B6 VH with S31G, V37I, A40T, S56R, I99F, A106D, Y107H
VL: B7 VL with F7S, S10F, T22S, K24R, G32S, L48Q, E76D, V91L, N97A, Y99S
For the molecule B10, the EC50 was determined as 0.021 µg/mL.

B11: 406F11G8 (antibody, V domains shown)
VH: B6 VH with P75S
VL: B3 VL with V2I, T20A, S28T, I52L, S78T, T82S, L95Q, D97A, A106S
For the molecule B11, the EC50 amounted to 0.016 µg/mL.

B12: 407H12E6 (antibody, V domains shown)
VH: B6 VH with F29V, M93I, I99F, A106D, Y107H
VL: B7 VL with F7S, A15T, T22S, G32S, L48Q, P49S, E76D, A86T, Y93F, Y99F
B12 returned an EC50 of 0.126 µg/mL.

B13: 406E1H7 (antibody, V domains shown)
VH: B6 VH with S31G, V37I, A40T, S56R, K65Q, I99F, A106D, Y107H, A118S
VL: B7 VL with F7S, S10F, T22S, G32S, L48Q, E76D, V91L, N97A, Y99S
Regarding B13, the EC50 stood at 0.00955 µg/mL.

B14: 394C2G5 (antibody, V domains shown)
VH: B6 VH with S31G, V37I, A40T, I51V, S56R, I99F, A106D, Y107H
VL: DIVMTQSPSFLTVTAGEKVTMSCKSSQSLLNSGNQKNYLTWYQQKPGQPPKLLIYWASTRESGVPDRFTGSGSGTDFTLTINNVQAEDLALYYCQNAYSFPLTFGAGTKLELT
The molecule B14 yielded an EC50 of 0.00846 µg/mL.

B15: 407A8G10 (antibody, V domains shown)
VH: B6 VH with S31G, V37I, A40T, S56R, I99F, A106D, Y107H
VL: B14 VL with K24R, K36R, T78A, N82S, N83S, T113K
Take B15: the EC50 turned out to be 0.00554 µg/mL.

B16: 407E11H8 (antibody, V domains shown)
VH: B6 VH with S31D, V37I, A40T, S56R, A97V, I99F, Y101F, A106D, Y107H
VL: B14 VL with S22T, K24R, S28N, Q35L, Y55S, N82S, N83S, A86P, T113K
As to B16, the EC50 amounted to 0.017 µg/mL.

B17: 405G8F11 (antibody, V domains shown)
VH: B6 VH with A23V, A24T, T84S, I99F
VL: DIVMTQSPSSLTVTAGEKVTMNCKSSQSLLNSGNQKNYLTWYQQKLGQPPKLLMYWASTRESGVPDRFTGSGSGTDFTLTISSVQAEDLAVYFCQSAFSYPLTFGAGTKLELK
B17 gave an EC50 of 0.00199 µg/mL.

B18: 370E2B12C3 (antibody, V domains shown)
VH: QVQLKESGPGLVAPSQSLSITCTVSGFSLTTYGVHWVRQPPGKGLEWLGVIWAGGSTNYNSALMSRVSINKDNSKSQVFIKMNSLQADDTALYYCARAAYYGNGLDYWGQGTTLTVSS
VL: DIVMTQSPSSLTVTAGEKVTMSCKSSQTLLNSGNQKNYLTWYQQKPGQPPKLLIYWASTGESGVPDRFTGSGSGTDFTLTISSVQAEDLAVYFCQNAYFYPFTFGGGTKLEIK
Consider B18, for which the EC50 is 0.0156 µg/mL.

B19: 393C2C5 (antibody, V domains shown)
VH: B6 VH with R98T, I99F
VL: B18 VL with P46S, G60R, F93Y, F99S, F102V, G106S, L110V, I112L
B19 registered an EC50 of 0.0504 µg/mL.

B20: 275H9A2 (antibody, V domains shown)
VH: QAYLQQSGAELVRSGASVKMSCRASGYSFTSHNMHWVKQTPGQGLEWIGYIYPGNGGSYYNQKFKGKAILTADTSSSTAYMQISSLTSEDSAVYFCTRDYYGNSFVYWGQGTLVTVSA
VL: DVVMTQSPSSLTEKTGEKVSMSCKSSQSLLNSGNQKNYLTWYQQKPGQPPKLLIYWASTRESGVPDRFTGSGSGTDFTLTISSLQTEDLAVYYCQNNFRYPFTFGAGTKLELK
In turn, B20 registered an EC50 of 0.0245 µg/mL.

B21: 277F1F8 (antibody, V domains shown)
VH: B20 VH with A9P, R23K, S28T, Y52N, S58N, Y59N, I69T, T97A, V106A, Y107F
VL: B20 VL with V2I, K14T, T15A, L84V, T86A, N97D, F98Y, Y100F
Turning to B21, the EC50 turned out to be 0.0158 µg/mL.

B22: 280F3B6 (antibody, V domains shown)
VH: B20 VH with R23K, S28T, S58T, Y59N, I69T, V106A
VL: B20 VL with V2I, T15A, K18R, L30F, L84V, T86A, N97D, F98Y, R99W
Consider B22, for which the EC50 amounted to 0.012 µg/mL.

B23: 279E8B8 (antibody, V domains shown)
VH: QAYLQQSGAELVRSGASVKISCKASGYTFASHNMHWVKQTPGQGLEWIGYIYPGNGGTKYNQKFTGKATLSADTSSSTAYLQISSLTSEDSAVYFCARDYFGNSFVYWGQGTLVTVSA
VL: B20 VL with V2I, T15A, S22R, L84V, T86A, E87D, N97D, F98Y, R99M
Turning to B23, the EC50 worked out at 0.0201 µg/mL.
